# In paper PMC3364340:
# Columns and labels:
# [1] = molecular target: TrkA, on human TF1 erythroleukemia cells (human (endogenous in TF1)) (UniProt P04629)
# [2] = molecular target: p75NTR, endogenous in rat primary hippocampal neurons (rat (endogenous in rat hippocampal neurons)) (UniProt P07174)
# UniProt P07174, sequence (P07174 30-425): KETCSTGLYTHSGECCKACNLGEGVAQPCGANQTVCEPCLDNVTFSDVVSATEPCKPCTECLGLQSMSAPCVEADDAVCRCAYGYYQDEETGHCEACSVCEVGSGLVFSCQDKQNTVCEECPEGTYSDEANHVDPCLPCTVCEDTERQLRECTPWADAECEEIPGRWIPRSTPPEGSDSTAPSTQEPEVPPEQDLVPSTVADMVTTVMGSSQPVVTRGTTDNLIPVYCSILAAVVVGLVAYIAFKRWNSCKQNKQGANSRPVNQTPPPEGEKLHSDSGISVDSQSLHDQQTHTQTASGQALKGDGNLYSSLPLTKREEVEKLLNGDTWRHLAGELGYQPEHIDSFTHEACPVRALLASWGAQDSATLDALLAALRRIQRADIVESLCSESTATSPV
# UniProt P04629, sequence (P04629 33-796): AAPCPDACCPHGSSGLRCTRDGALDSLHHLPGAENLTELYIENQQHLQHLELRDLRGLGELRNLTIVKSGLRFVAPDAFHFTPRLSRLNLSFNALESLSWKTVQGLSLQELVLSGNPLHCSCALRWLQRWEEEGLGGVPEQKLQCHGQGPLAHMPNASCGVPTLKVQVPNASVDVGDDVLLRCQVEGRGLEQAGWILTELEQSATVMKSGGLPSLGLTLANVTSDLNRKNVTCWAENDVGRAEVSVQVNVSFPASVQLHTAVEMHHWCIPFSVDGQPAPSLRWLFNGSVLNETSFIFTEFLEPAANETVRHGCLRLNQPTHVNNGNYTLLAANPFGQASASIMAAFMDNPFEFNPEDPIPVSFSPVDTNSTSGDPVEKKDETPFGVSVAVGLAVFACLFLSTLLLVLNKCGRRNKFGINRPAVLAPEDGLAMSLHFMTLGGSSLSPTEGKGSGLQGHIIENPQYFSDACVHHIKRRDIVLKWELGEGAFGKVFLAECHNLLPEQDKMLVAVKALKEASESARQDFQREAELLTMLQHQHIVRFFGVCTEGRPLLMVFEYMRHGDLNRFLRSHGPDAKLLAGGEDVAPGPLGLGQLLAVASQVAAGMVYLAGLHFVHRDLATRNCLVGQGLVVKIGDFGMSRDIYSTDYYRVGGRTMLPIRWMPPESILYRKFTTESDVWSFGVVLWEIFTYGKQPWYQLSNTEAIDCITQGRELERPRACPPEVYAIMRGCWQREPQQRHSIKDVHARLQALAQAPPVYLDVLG
"proliferative index, proliferation of human TF1 cells expressing TrkA [1] [ng/mL]","c-jun Ser63 phosphorylation in hippocampal neurons (Western blot, site-specific anti-phospho c-jun antibody), reduction with respect to hNGF or hNGFP61S [2] [%]",Substance
1.68,–,"hNGFP61S, human NGF tagged with the single-residue epitope P61S (ligand)"
1.28,30,"hNGFR100E, human NGF mutant R100E (from UniProt P01138 122-241) (ligand)"
1.89,30,"hNGFP61S/R100E, double mutant of human NGF (""painless"" hNGF) (ligand)"
